# Test: yeast display, Sf9 membrane polyspecificity reagent, FACS + sequencing; frameworks hold sequencing errors
# How it was run: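 Nanobodies came from a synthetic yeast display library in Saccharomyces cerevisiae BJ5465, induced with galactose for 36–48 hours and stained for 1 hour at 4 °C with 10% biotinylated, detergent-solubilized Sf9 membrane reagent. Cells were enriched on streptavidin microbeads and then FACS-sorted, with low and high (top ~1%) gates set on anti-HA fluorescence for expression and streptavidin fluorescence for reagent binding. Each polyreactivity label reflects the gate a clone came from. Genes were amplified by colony PCR, sequenced by MiSeq 2 × 250 and filtered by CDR length.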
row,Sequence,polyreactivity (PSR sort gate)
1,QVQLVESGGGLVQAGGSLRLSCAASGFIFFANAMGWYRQAPGKESELVADITWSGGTTYYADSVKGRFTISRDNAKNTVYLQMNSLKPEDTAVYYCAARGWASTWYYYWGQGTQVTVSS,high polyreactivity
2,QDQLVESGGGLVQAGGSLRLSCAASGFTFSWNAMGWYRQSPGKERQLVAAISWSGGSTYYADSVKGRFTISRDNAKNTVYLQMNSLKPEDTAVYYCNAGSTRAASRVRYDYWGQGTQVTVSS,high polyreactivity
3,QVQLVESGGGLVQAGGSLRLICAASGSIFISYAMGWYRQAPGKERELVAAISSGGSTNYADSVKGRFTISRDNAKNTVYLQMNSLKPEDTAVYYCAADGWLWSFTGDGWWFDYWGQGTQVTVSS,low polyreactivity
4,QVQLVESGGGLVHAGGRLRLSCAASGRTFVSYVMGWYRQAPGKERELVAAISGNGGRTYYADSVKGRFTISRDNAKNTVYLQMNSLKPEDTAVYYCAAELFVSYFDVLMYYWGQGTQVTVSS,high polyreactivity
5,QVQLVESGGGLVHAGGSLRLSCAASGRIFYQYAMGWYRQAPGKERELVAAIRYRDDGTYYADSVKGRLTISRDNAKNTVYLQMNSLKPEDTAVYYCAGKQWGRYGYWGQGTQVTVSS,high polyreactivity
6,QVQLVESGGCLVKAGGSLRLSCAASGSIFGHYAMGWYRQAPGKERELVASIDSGGRTNYADSVKGRFTISLDNAKNTVYLQMISLKPEDTGVYYCNTTSVKTRGYGYWGQGSQVTVSS,low polyreactivity
7,QDQLVDSGGGLVQAGGSLRLSCDASGIFDYYVMGWYRQAPGTERELVAAISKSVGSTYYADSVKGRFTISRDNAKNTVYLQMNSLKPEDTAVYYCAVENRYRFGYWGQGTQVTVSS,low polyreactivity
8,QVQLVESGGGLVQAGGSLRLSCAASGFTFQYYAMGWYRQAPGKERELVAAISWSGDSTYYADSVKGRITISRENAKNSVYLQMNSLKPEDTAVYYCAVYYTRGYDYWGQGTQVTVSS,high polyreactivity
9,QVQLVESGGGLVQAGGSLRLICAASASIFQPYAMGWYRQAPGKERELVAAISKSGGNTYYADSVKGRFSSSRDYAKNTVYLQMNRLKPEVSAVYYCAALDYWGQGTQVTLSS,low polyreactivity
10,QVQLVESGGGLVQAGGSLRLSCAASGRIFWTYAMGWYRQAPGKERELVAAINSSGGTTYYADSVKGRFTISRDNAKNTVYLQMNSLKPEDTAVYYCSVRGRYYYRRPQISYDYGGQGTQVTVSS,low polyreactivity
11,QVQLVESGGGVVQAGGSLRLSCAASGSTFGWYALGWYRQAPGKERELVAAITSGGSTKYADSVKGRFTISRDNAKNTVVLQMNSLKTEDTAVYYCDTVRGYYSPVLVIGYYWGQGTQVTVSS,high polyreactivity
12,QVQLVESGGRLVQAGGRLRLSCAASGNIFYGYAMGWYRQAPGKERELVARINWSGSRTYYADTVKGRFTISRDNAKNTVYLQMNSLNPEDTAVYYCNTSTSRVPGNGDYWGQGTQVTVSS,high polyreactivity
13,QVQLVESGGGLVQAGGSLRLICAASGSTFKTYAMGWYRQAPGQEREFVASISGSGGSTSYADSVKGRFTISRDNAKNTVYLQMNSLKPEDTAVYYCAARLQKPTIGKGVYYWGQGTLVTVSS,high polyreactivity
14,QVQLVESGGGLVQAGGSLRLSCAASGRNFPYYAMGWSRQAPGKERELVADISSSGGRTYYADSVKGRFTTSRDNAKNTVYLQMNSLKPEDTAVYYCNAESTYYPSGEDYWGQGTQVTVSS,low polyreactivity
15,QVQLVESGGGLVQAGGSLRLSCAASGNIFPIYPMGWYRQAPGKERELVASIYRGGTTYYADSVKGRFTISRDNAKNTVYLQMNSLKPEETAVYYCAVYSPRLRRVHTRGYWGQGTQVTVSS,high polyreactivity
16,QVQLVESGGGLVQAGGSLRLSCAASGSIFAYNTMGWYRQAPGKEREFVAAISWRGGSTYYADSVKGRFTISRDNAKNTVYLQMTSLKPEDTAVYYCNARYRNTFYTRRYDYWGQGTQVTVSS,high polyreactivity
17,QVQLVESGGGLVQEGGSLRLSCAASGSTFSNYMGWYRQAPGKERELVAAITQSGVSTYYADSVKGRFTISRDNAKNTVYLQMNSLKPEDTAVYYCYNYLSGYDYWGQGTQVTVSS,low polyreactivity
18,QVQLVESGGGLFQAGGSLRLSCAASGRIFKYAMGWYRQAPGKERELVAAISSSGGRTYYADSVKGRFTISRDNAKNTVYLQMNSLKPEDTAVYYCAATSYNTQSAFYYWGQGTQVTVSS,high polyreactivity
19,QVQLVESGGGLVQAGGSLRLSCAASGSNFTYYALGWYRQAPGKERELVAAISKTGGRTYYADSVKGRFTISRDNAKNTVYLQMNSLKPEDTAVYYWAAEAPWQWYGWLRGYDFCGQGTQVTVSS,high polyreactivity
20,QVQLVESGGGLVQAGGSLRLSCAASGFTFLYYAMGWYRPAPGKERELVAAISASSDRTYYADSVKGRFTISRDNAKNTVYLQMNSLKPEDTAVYYCAAYNSRVGGYRGYGYWGQGTQVTVSS,high polyreactivity
21,QVQLVESGGGLVQAGGSLRLSCAASGSIFRSYAMGWYRQAPGKEREFVAAIRNSSGRTYYADSVKGRFTISRDNAKNTVYLQMNSLKPEDTAVYYCAARLPRTYQGGKLYRLQYSWGQGTQVTVSS,high polyreactivity
22,QVQLVESGGGLVQAGGSLRLSCAASGRIFYNSVMGWYRQAPGKERELVAAISSSGGSTYYADSVKGRFTISRDNAKNTVYLQMNSLKPEDTAVYYCATTRRVPGEYWGQGTQVTVSS,high polyreactivity

row,Sequence,polyreactivity (PSR sort gate)
1,QVQLVESVGGLVQAGGSLRLTCAASVITQRFNSMGWYRQAPGKEMELVAAISSGTNTYYADSVKGRFAISRDNAKNTVYLQMNSLKPEDTAVYYCADTLGYYTSGRSYQRYDYWGHGTQVTVSS,low polyreactivity
2,QVQLVESGGGLVQAGGSLRLSCAASGRIFQYYAMGWYRQAPGKERELVAAIDQSGDTTYYADSVKGRFTISRDNAKNTVYLQMNSLKPEDTAVYYCAAGYDWAYHWVPQWMYFWGQGTQVTVSS,low polyreactivity
3,QVQLVESGGGLVQAGGSLRLICAASGFIFTSYTMGWYRQAPGKERELVAAISRSGGRTYYADSVKGRFTISRDNAKNTVYLQMNRLKPVDTAVYYCNAGYPASYYYYGFDYWGQGTQVTVSS,high polyreactivity
4,QVQLVESGGGLVQAGGSLRLSCAASGRISLGYAMGWYRQAPGKERELVAAITRGGTTSYAHSVKGRFTISRDNAKNTVYLQMNSLKPEDTAVYYCAVPAGYFGKWTYYYWGQGTQVTVSS,high polyreactivity
5,QVQLVESGGCLVQAGGSLRLICAASGNTFYVYAMGWYRQAPGKERELVAAITWSGGSTNYADSVKGRYTISRDNAKNTVYLQMNSLKPEDSAVYYCKADYWTFSPYDYWGQGTQVTVSS,low polyreactivity
6,QVQLVESGGGLVQAGGSLRLSCAASGLISYRNAMGWYRQAPGKERELVAAISSDGSTYYADSVKGRFTISRDNAKNTVYLQMNSLKPVDTAVYYCAADYREFDAYGAARTLDFDYWGQGTQVTVSS,low polyreactivity
7,QVQLVESGGGLVQAGGSLRLSCAASGRTFVRNAMGWYRQAPGKERELVAAISSSGGSTYYADSVKGRFTISRDNAKNTVYLQMNSLKPEDTAVYYCAARSAFYYTYRSHYGWGMDYWGQGTQVTVSS,high polyreactivity
8,QVQLVESRGGLVQAGGSLRLSCAASGFIFWYYAMGWYRQAPGKERALVAAINWSGTSTNYADSVKGRFTISRDNAKNTVYLQMNSLIPEDTAVYYCNTRIWSSSYDVTYDYWGQGTQVTVSS,low polyreactivity
9,QVQHGESGGGIVQAVVSLRLSCSASGFTFYYYPMGWYRQAPGKERELVAAIDTGGSTNYADSVKGRFTMSRDNAKNTVYLQMNSLKPEDTAVYYCNALQPGLGSPLGEYDYWGQGTQVTVSS,low polyreactivity
10,QVQLVESGGGLVQAGGSLRLSCAASGSTFWGYTMGWYRQAPGKERELVAAITGSGGSTNYADSVKGRFTISRDNANNTVYLQMNSLKPEDTAVYYCATQGITPSNSYDYWGQGTQVTVSS,low polyreactivity
11,QGQLVESGAGLVQAGGSLRLSCAASGITLHGYVMGWYRQAPGKETELVAAITSSGGRTYYADSVKGRFTISRDNAKNTVYLQMNRLKPVDTAVYYCAARIYYYAFSGYYWGQGTQVTVSS,high polyreactivity
12,QVQLVESGGGLVQAGGSLRLSCAASGGIFGSYAMGWYRHAPGKERELVADITQSGGRTRYADSVKGRFTISRDNAKNTVYLQMNSLKPEDTAVYYCNAQDVDSGDDYDYWGQGTQVTVSS,low polyreactivity
13,QVQLVESGGGLVQAGGSLRLSCAASGSTFSVYTMGWYRQAPGKERELVAAISRSGGRTYYADSVKGRFTISRDNAKNTVYLQMNSVKPDDTAVYYCATGYYGTYDYWGQGTQVTVSS,high polyreactivity
14,QVQLVESGGGLVQAGGSLRLSSADSGSIFVYYAMGWYRQEPGKESELVATIRSSGARTYYADSVKGRFTISRDNAKNTVYLQINSLKPEDTAVYYCNARYVPYWAYGYGYWGQGTQVTVSS,high polyreactivity
15,QVQLVESGAGLVQAGGSLRISCAASGRIFAQYAMGWYRQAPGKERELVAAITTTGRTYYADSVKGRFTISRDNAKNTVYLQMNSTKPEETAVYYCAVGYHAPKVSTSDPRYDYWGQGTQVTVSS,low polyreactivity
16,QVQLVESGGGLVQAGGSLRLSCAASGFIFADYAMGWYRQAPGKARELVAAINRGASTYYADSVKGRFSISRDNAKNTVYFQMNSLKPEDTAVYYCAAAGYSRGGRGGYWGHGTQVTVSS,high polyreactivity
17,QVQLVESGGGLVQAGGSLRLSCAASGFTFLKYAMGWYRQAPGKERELVAAISWSGGRTFYADSVKGRFTISRDNAKNTVYLQMISLKPEDTAVYYCATRTRGSVYRFDYWGQGTQVTVSS,high polyreactivity
18,QVQLVESGGGLVQAGGSLRLSCAASGFIFYAYAMGWDRQAPGKERELVAAISRGGGSTYYADSVKGRFTISRDNAKNTVYLQMNSLKPEDTAVYYCAADFYYDRDVDFWGQGTQVTVSS,high polyreactivity
19,QVQLVESGGALVQAGGSLRLSCAASGSLFERYAMGWYRQAPVKEREFVATITSGGGRTYYADSVKGRFTISRDNAKNTVYLQMNSLQPEDTAVYYCTAVYRARSYDYWGQGTQVTVSS,high polyreactivity
20,QVQLVESGGGLVQAGGSLRLICAASGSTLPGYVKGWYRQAPGKERELVAAITKSGGSTYYADSVKGRFTISRDNAKNTVYLQMNSLKPEDTAVYYCAVGVKAQIAGDYWGQGTQVTVSS,low polyreactivity
21,QVQLVESGGGLVQAGGSLRLSCAASGRIFAGYGMGWYRQAPGKERELVAAISSGGSTYYADSVKGRFTISRDNAKNTVYLQMTSLKPEDTAVYDCATDGQSVPDDYYQNVDYDYWGQGTQVAVSS,low polyreactivity
